# Experimental data from patent publication US20250352661A1 (MYTHIC THERAPEUTICS, published 2025).
# Substitutions are numbered along the chain they refer to. Names and notes keep the numbering of the source.
# T1: LRRC15 on the surface of LRRC15+ cells (SAOS-2, U87MG) (UniProt Q8TF66 22-581, limits assumed)
# T1 sequence (looked up): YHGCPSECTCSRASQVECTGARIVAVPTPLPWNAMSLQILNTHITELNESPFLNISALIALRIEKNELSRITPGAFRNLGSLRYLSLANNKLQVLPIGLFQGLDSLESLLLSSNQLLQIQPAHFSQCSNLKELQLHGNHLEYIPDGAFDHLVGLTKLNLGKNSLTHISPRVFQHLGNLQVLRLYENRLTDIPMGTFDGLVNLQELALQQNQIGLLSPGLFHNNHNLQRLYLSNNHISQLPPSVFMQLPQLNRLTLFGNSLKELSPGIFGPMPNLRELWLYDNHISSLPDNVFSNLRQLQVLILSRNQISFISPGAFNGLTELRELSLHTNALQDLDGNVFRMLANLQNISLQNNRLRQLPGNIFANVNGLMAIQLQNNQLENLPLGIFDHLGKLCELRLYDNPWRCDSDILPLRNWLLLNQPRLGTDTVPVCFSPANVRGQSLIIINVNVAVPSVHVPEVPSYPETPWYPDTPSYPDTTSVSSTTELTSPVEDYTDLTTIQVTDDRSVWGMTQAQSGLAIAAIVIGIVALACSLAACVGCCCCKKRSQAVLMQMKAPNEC
# T2: Human LRRC15 Protein, His Tag (Acro Biosystems) (human, UniProt Q8TF66 22-538, limits assumed)
# T2 construct: Bought protein with His tag
# T2 sequence (looked up): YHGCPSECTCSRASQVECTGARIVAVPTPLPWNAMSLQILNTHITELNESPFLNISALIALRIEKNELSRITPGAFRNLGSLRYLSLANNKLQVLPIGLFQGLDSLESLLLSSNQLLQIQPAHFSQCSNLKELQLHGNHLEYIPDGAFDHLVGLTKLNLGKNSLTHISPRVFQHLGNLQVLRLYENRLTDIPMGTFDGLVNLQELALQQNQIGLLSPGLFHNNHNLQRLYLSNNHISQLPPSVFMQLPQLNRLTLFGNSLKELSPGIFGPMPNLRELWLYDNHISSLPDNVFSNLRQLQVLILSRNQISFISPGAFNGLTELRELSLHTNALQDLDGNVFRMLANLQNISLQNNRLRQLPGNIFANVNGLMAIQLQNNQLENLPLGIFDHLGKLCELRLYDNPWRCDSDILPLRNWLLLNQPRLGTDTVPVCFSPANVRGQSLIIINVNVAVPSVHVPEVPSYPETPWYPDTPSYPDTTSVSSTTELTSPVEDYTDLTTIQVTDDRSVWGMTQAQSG
# B1: MYT8415 (antibody, V domains shown)
# VH: EVQLVESGGGLVQPGGSLRLSCTASGLDFRRTNYICWVRQAPGKGLEWVGCIYIADVVHYYASWAKGRFTFSRDTSKNTVYLQMNSLRAEDTAVYYCARGADGGFVYGMDLWGQGTLVTVSS
# VL: EIVMTQSPSTLSASVGDRVIITCQASQSIGNYLSWYQQKPGKAPKRLIYSASTLPSGVPSRFSGSGSGAEFTLTISSLQPDDFATYYCQNNHWLAGYGHPFGQGTKLTVL
# B2: MYT9776 (antibody, V domains shown)
# VH: EVQLVESGGGLVQPGGSLRLSCTASGFSFSGHYWICWVRQAPGKGLEWVGCIHGGSHDITYYASWAKGRFTISRDTSKNTVYLQKTSLRAEDTAVYYCASDTSYTAYGNFYFNLWGQGTLVTVSS
# VL: EIVMTQSPSPLSASVGDRVIITCQSSQSVLNNNWLAWYQQKPGKAPKLLIYDASSLASGVPSRFSGSGSGAEFTLTISSLQPDDFATYYCQGEFSCGSADCNAFGQGTKLEIK
# B3: MYT3315 (antibody, V domains shown)
# VH: EVQLVESGGGLVQPGGSLRLSCAVSGFSLTSYGVHWVRQATGKGLEWLGVIWAGGSTNYNSALMSRLTISKENAKSSVYLQMNSLRAGDTAMYYCATHMITEDYYGMDYWGQGTTVTVSS
# VL: DIVMTQSPDSLAVSLGERATINCKSSQSLLNSRTRKNYLAWYQQKPGQSPKLLIYWASTRHSGVPDRFSGSGSGTDFTLTISSLQAEDVAVYYCKQSYNLPTFGGGTKVEIK
# B4: MYT6129 (antibody, V domains shown)
# VH: QEQLEESGGDLVKPGASLTLTCTASGLDFRRTNYICWVRQAPGKGLEWIGCIYIADVVHYYASWAKGRFTFSKTSSTTVTLQMTSLTAADTATYFCARGADGGFVYGMDLWGPGTLVTVSS
# VL: DVVMTQTPASVSEPVGGTVTIKCQASQSIGHYLSWYQQKPGQRPKRLIYSASTLPSGVPSRFKGAGSGTEFTLTISDLESADAATYYCQNNYWLAGYGHPFGGGTEVVVK
# notes: rabbit 15G7 VL N31H; chimeric, human constant regions
# B5: MYT6144 (antibody, V domains shown)
# VH: B4 VH
# VL: B4 VL with H31N, W93H
# notes: rabbit 15G7 VL W93H; chimeric, human constant regions
# B6: MYT6139 (antibody, V domains shown)
# VH: B4 VH
# VL: B4 VL with H31N, S56H
# notes: rabbit 15G7 VL S56H; chimeric, human constant regions
# B7: MYT6141 (antibody, V domains shown)
# VH: B4 VH
# VL: B4 VL with H31N, N90H
# notes: rabbit 15G7 VL N90H; chimeric, human constant regions
# B8: MYT6133 (antibody, V domains shown)
# VH: B4 VH
# VL: B4 VL with H31N, S50H
# notes: rabbit 15G7 VL S50H; chimeric, human constant regions
# B9: MYT6134 (antibody, V domains shown)
# VH: B4 VH
# VL: B4 VL with H31N, A51H
# notes: rabbit 15G7 VL A51H; chimeric, human constant regions
# B10: MYT6138 (antibody, V domains shown)
# VH: B4 VH
# VL: B4 VL with H31N, P55H
# notes: rabbit 15G7 VL P55H; chimeric, human constant regions
# B11: MYT6150 (antibody, V domains shown)
# VH: B4 VH
# VL: B4 VL with H31N, H99A
# notes: rabbit 15G7 VL H99A; chimeric, human constant regions
# B12: MYT6132 (antibody, V domains shown)
# VH: B4 VH
# VL: B4 VL with H31N, S34H
# notes: rabbit 15G7 VL S34H; chimeric, human constant regions
# B13: MYT6135 (antibody, V domains shown)
# VH: B4 VH
# VL: B4 VL with H31N, S52H
# notes: rabbit 15G7 VL S52H; chimeric, human constant regions
# B14: MYT6147 (antibody, V domains shown)
# VH: B4 VH
# VL: B4 VL with H31N, G96H
# notes: rabbit 15G7 VL G96H; chimeric, human constant regions
# B15: MYT6148 (antibody, V domains shown)
# VH: B4 VH
# VL: B4 VL with H31N, Y97H
# notes: rabbit 15G7 VL Y97H; chimeric, human constant regions
# B16: MYT6145 (antibody, V domains shown)
# VH: B4 VH
# VL: B4 VL with H31N, L94H
# notes: rabbit 15G7 VL L94H; chimeric, human constant regions
# B17: MYT6142 (antibody, V domains shown)
# VH: B4 VH
# VL: B4 VL with H31N, N91H
# notes: rabbit 15G7 VL N91H; chimeric, human constant regions
# B18: MYT6149 (antibody, V domains shown)
# VH: B4 VH
# VL: B4 VL with H31N, G98H
# notes: rabbit 15G7 VL G98H; chimeric, human constant regions
# B19: MYT6136 (antibody, V domains shown)
# VH: B4 VH
# VL: B4 VL with H31N, T53H
# notes: rabbit 15G7 VL T53H; chimeric, human constant regions
# B20: MYT6137 (antibody, V domains shown)
# VH: B4 VH
# VL: B4 VL with H31N, L54H
# notes: rabbit 15G7 VL L54H; chimeric, human constant regions
# B21: MYT6143 (antibody, V domains shown)
# VH: B4 VH
# VL: B4 VL with H31N, Y92H
# notes: rabbit 15G7 VL Y92H; chimeric, human constant regions
# B22: MYT6146 (antibody, V domains shown)
# VH: B4 VH
# VL: B4 VL with H31N, A95H
# notes: rabbit 15G7 VL A95H; chimeric, human constant regions
# B23: MYT6130 (antibody, V domains shown)
# VH: B4 VH
# VL: B4 VL with H31N, Y32H
# notes: rabbit 15G7 VL Y32H; chimeric, human constant regions
# B24: MYT6131 (antibody, V domains shown)
# VH: B4 VH
# VL: B4 VL with H31N, L33H
# notes: rabbit 15G7 VL L33H; chimeric, human constant regions
# B25: MYT6140 (antibody, V domains shown)
# VH: B4 VH
# VL: B4 VL with H31N, Q89H
# notes: rabbit 15G7 VL Q89H; chimeric, human constant regions
# B26: MYT6151 (antibody, V domains shown)
# VH: B4 VH
# VL: B4 VL with H31N, P100H
# notes: rabbit 15G7 VL P100H; chimeric, human constant regions
# Target: T1, LRRC15 on the surface of LRRC15+ cells …
# Test: cell-based or functional assay
Binder,"Internalization in U87MG cells (10 nM, 24 hours), FOB = fold over background (IgG control)","Internalization in U87MG cells (10 nM, 24 hours), FOS = fold over samrotamab [fold over samrotamab]"
B1,2.53 fold over background (IgG control),1.79
B2,2.69 fold over background (IgG control),1.97
B3,2.57 fold over background (IgG control),1.83

# Target: T2, Human LRRC15 Protein, His Tag (Acro …)
# Test: BLI; dissociation pH 7.4 black, pH 5.4 grey [D00008 FIG. 1F]
# Source text: For each individual plot, antigen binding proteins were captured on anti-human Fc biosensors and associated with LRRC15 at pH 7.4. Dissociation was at pH 7.4 (black) or pH 5.4 (grey). Major X-axis ticks=100 seconds, with left dashed vertical line=0 seconds. Major Y-axis ticks=0.5 nm and octet plots are shown MYT5712 and MYT6080-MYT6121.
# Multiple LRRC15-binding monoclonal antibodies have been described in the literature and can be used as a template for engineering pH-dependent binding. We selected discovery RabMAb clone 15G7 (rabbit VH SEQ ID NO: 378, rabbit VL SEQ ID NO: 451; humanized VH SEQ ID NO: 382, humanized VL SEQ ID NO: 455) as a LRRC15-binding monoclonal antibody for pH-engineering via histidine scanning. […] To generate pH-dependent sequence variants, individual amino acid residues within the heavy chain CDRs were systematically substituted with a histidine (or alanine if H was already present in a given position; e.g., MYT6099), one at a time (rabbit, MYT6080-6121). Desirable mutations were transferred to a humanized framework (humanized, MYT 8387-8411). After allowing for four days of protein expression, cell culture supernatants were collected, quantified by SDS-PAGE analysis, and the pH dependence of the variant was evaluated using biolayer interferometry (BLI) on an Octet RED 96e instrument. Briefly, cell culture supernatants were diluted based on qualitative expression level of the variant determined by visual examination of SDS-PAGE gels, 5 μL of cell culture supernatant was diluted into 195 μL of 1×PBST, pH 7.4 for high expressors, 25 μL of cell culture supernatant was diluted into 175 μL of 1×PBST, pH 7.4 for medium expressors and 100 μL of cell culture supernatant was diluted into 100 μL of 1×PBST, pH 7.4 for low expressors for loading onto the sensor tips.
row,Binder,binding result
1,B4,binds
2,B5,binds
3,B6,binds
4,B7,no binding (tested: 50 nM LRRC15)
5,B8,binds
6,B9,binds
7,B10,binds
8,B11,binds
9,B12,binds
10,B13,binds
11,B14,binds
12,B15,binds
13,B16,no binding (tested: 50 nM LRRC15)
14,B17,binds
15,B18,binds
16,B19,binds
17,B20,binds
18,B21,binds
19,B22,binds
20,B23,binds
21,B24,binds
22,B25,binds
23,B26,binds
